{"source": "patent US20220378949A1", "about": "“NEUROTROPHIN RECEPTOR BINDING CONJUGATE COMPOSITIONS, METHODS OF USE AND METHODS OF MAKING THEREOF” (priority 2019, published 2022)", "molecules": {"B1": {"name": "488-mNGF: fluorescent dye Alexa Fluor 488 attached to murine NGF (conjugate, UniProt P01139 122-241, looked up)", "Beta-nerve growth factor": "SSTHPVFHMGEFSVCDSVSVWVGDKTTATDIKGKEVTVLAEVNINNSVFRQYFFETKCRASNPVESGCRGIDSKHWNSYCTTTHTFVKALTTDEKQAAWRFIRIDTACVCVLSRKATRRG", "modifications": "Alexa Fluor 488 dye", "notes": "fluorescent dye Alexa Fluor 488 attached to murine NGF"}, "B2": {"name": "800-rhBDNF: NIR dye in the 800 region directly attached to rhBDNF (conjugate, UniProt P23560 19-247, looked up)", "Neurotrophic factor BDNF …": "APMKEANIRGQGGLAYPGVRTHGTLESVNGPKAGSRGLTSLADTFEHVIEELLDEDQKVRPNEENNKDADLYTSRVMLSSQVPLEPPLLFLLEEYKNYLDAANMSMRVRRHSDPARRGELSVCDSISEWVTAADKKTAVDMSGGTVTVLEKVPVSKGQLKQYFYETKCNPMGYTKEGCRGIDKRHWNSQCRTTQSYVRALTMDSKKRIGWRFIRIDTSCVCTLTIKRGR", "modifications": "NIR 800 dye", "notes": "NIR dye in the 800 region directly attached to rhBDNF"}}, "key": {"[1]": {"tested_on": "superior cervical ganglia (SCG) neurons", "test": "Retrograde axonal transport of 800-rhNGF in Xona microfluidic chambers, LI-COR Odyssey imaging", "assay_type": "cell-based, rat", "settings": "30 ng/mL at distal axons, 48 hours", "from_the_text": "(§1) Increasing conjugation leads to decreased protein conjugate solubility. A construct where the active agent has a greater molecular weight and less hydrophilic Dyomics DY-800 Near InfraRed (NIR) dye was attached directly to recombinant human NGF (rhNGF) (FIG. 2). In subsequent studies, we purified DAR sub-species using a (Waters column) reverse phase HPLC (RP-HPLC). […] Cultures were maintained until the axons extended through the channels in the microfluidic chambers to the side without cells plated. FIG. 2B depicts 800-rhNGF, 30 ng/mL was added to the wells where the terminal (distal) axons had extended. 48 hours after addition of 800-rhNGF to distal ends in left chambers, chambers were imaged on a LI-COR Odyssey scanner. […] FIGS. 2C and 2D depict brightfield images of wells containing cell bodies, showing improved visualization of cell clumps for comparison to images containing 800 NIR cell bodies. Neuronal Survival Confirms TrkB Binding Activity is Intact after Synthetic Manipulation."}, "[2]": {"settings": "administered sub-cutaneously (SQ); cited from earlier work"}, "[3]": {"test": "Stability of rhNGF in plasma", "assay_type": "in vitro ADME", "settings": "37° C.", "from_the_text": "As an example of an intracellularly active small molecule compound (SMC), the glucocorticoid fluocinolone acetonide (FA) was conjugated using a heterobifunctional linker to rhNGF and rhBDNF, both of which constructs exerted analgesic (anti-inflammatory) activity in vivo. Dorsal Root Ganglia (DRG) in diseases of the peripheral nervous system (PNS) play a fundamental role in chronic pain generally. NGF and BDNF localize due to their selectivity for distinct populations of peripheral neurons by binding to TrkA and TrkB expressed largely in nociceptors and proprioceptors, respectively. In treating forms of pain in which the DRG are involved, either NGF and/or BDNF should deliver intracellularly active FA by axonal transport to subpopulations of sensory neuron cell bodies in DRG and via their central synaptic terminals, into the dorsal horn of the spinal cord. Since TrkB is highly expressed in the neurofilament-1-expressing subpopulation of low-threshold mechanosensory neurons in the DRG, peripherally injected BDNF should deliver FA to the DRG. In treating pain, FA may alter neuronal excitability to be released or diffuse, acting on nearby inflammatory cells e.g. microglia, astrocytes, or satellite glia. rhNGF is stable in plasma for up to 4 days at 37° C."}, "[4]": {"tested_on": "superior cervical ganglia (SCG) neurons", "test": "Neuronal survival assay in primary superior cervical ganglia neurons (compartmented cultures / microfluidic devices)", "assay_type": "cell-based, rat", "settings": "FIG. 4 and FIG. 1C", "description": "In vitro systems that use primary neurons express Trk receptors on distal ends were used so that both survival and Trk binding activity may be assessed following synthetic manipulation in producing conjugates.\nConfirm Trk receptor binding. […] Receptor binding activity where up to 100× unmodified mNGF is co-administered with the Trk binding agent was determined. […] FIG. 1C: Neurons in compartmented cultures were given approximately 10 ng/mL fNGF (as determined by neuronal survival bioassay), or 10 ng/mL fNGF+100× excess unlabelled NFG (1000 ng/mL) in the distal axon compartments. 24 hours later fluorescence images of the cell bodies were obtained (FIG. 1C). […] Survival. […] SGC neurons were harvested from E-21 Sprague Dawley rat pups.\nDAR analytics were calculated using Reverse Phase High Performance Liquid Chromatography (RP-HPLC) and/or mass spectroscopy (MS). […] (FIG. 5)"}, "TrkA receptors": {"target": "T1, TrkA receptors (Rattus norvegicus, UniProt P35739)", "T1 construct": "In vitro systems that use primary neurons express Trk receptors on distal ends were used; endogenous in cells", "T1 sequence (P35739 33-799)": "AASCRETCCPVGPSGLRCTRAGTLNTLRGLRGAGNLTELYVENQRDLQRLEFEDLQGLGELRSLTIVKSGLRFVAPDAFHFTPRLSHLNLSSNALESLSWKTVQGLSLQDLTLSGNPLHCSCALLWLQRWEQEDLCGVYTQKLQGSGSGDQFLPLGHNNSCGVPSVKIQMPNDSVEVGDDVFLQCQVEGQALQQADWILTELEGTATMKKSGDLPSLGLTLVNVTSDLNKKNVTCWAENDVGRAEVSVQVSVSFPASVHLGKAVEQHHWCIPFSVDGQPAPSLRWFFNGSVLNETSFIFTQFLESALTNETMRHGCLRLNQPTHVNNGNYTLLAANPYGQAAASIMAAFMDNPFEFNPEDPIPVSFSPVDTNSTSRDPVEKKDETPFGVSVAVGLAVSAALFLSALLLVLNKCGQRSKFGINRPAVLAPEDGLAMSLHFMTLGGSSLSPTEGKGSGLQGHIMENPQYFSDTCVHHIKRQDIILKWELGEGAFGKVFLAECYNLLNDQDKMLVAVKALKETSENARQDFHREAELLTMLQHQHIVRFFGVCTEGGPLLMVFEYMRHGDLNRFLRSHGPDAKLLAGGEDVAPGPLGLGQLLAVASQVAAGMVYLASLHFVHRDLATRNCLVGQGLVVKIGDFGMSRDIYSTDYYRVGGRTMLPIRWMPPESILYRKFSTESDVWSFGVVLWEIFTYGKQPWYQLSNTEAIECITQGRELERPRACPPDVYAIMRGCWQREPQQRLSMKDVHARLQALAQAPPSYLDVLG", "test": "Uptake and retrograde transport of fluorescent NGF in compartmented cultures of SCG neurons, competition with unlabelled NGF", "assay_type": "cell-based", "settings": "for Uptake of fluorescent NGF at distal ends of neurons (TrkA-mediated endocytosis): distal axon compartments, SCG neurons", "description": "Confirm Trk receptor binding. […] Receptor binding activity where up to 100× unmodified mNGF is co-administered with the Trk binding agent was determined. 488-mNGF (FIG. 1A) is shown in cell bodies, after binding to TrkA, endocytosis and transport to the central chamber of the in vitro system. In FIG. 1B, TrkA was confirmed here by adding 1000 ng/ml unmodified mNGF to compete with 100 ng/ml 488-mNGF for the same TrkA receptors. FIG. 1C: Neurons in compartmented cultures were given approximately 10 ng/mL fNGF (as determined by neuronal survival bioassay), or 10 ng/mL fNGF+100× excess unlabelled NFG (1000 ng/mL) in the distal axon compartments. 24 hours later fluorescence images of the cell bodies were obtained (FIG. 1C). […] Alexa Fluor requirement for DAR<4 per mouse NGF monomer. Fluorescent dye Alexa Fluor 488, which due to its size and hydrophobicity is attached to NGF without using a spacer of any length binds to TrkA, is endocytosed after binding, and is transported retrogradely to the neuronal cell body. In FIG. 4, we show in vitro results for a “mixed DAR” 800-rhNGF of 1.64 which is expressed as an average of 1-4 dye molecules per monomer using standard analytical methods mass spectroscopy (MS) or high performance liquid chromatography (HPLC), in each case where the NT involved is a dimer. […] Survival. […] SGC neurons were harvested from E-21 Sprague Dawley rat pups."}, "[5]": {"tested_on": "Retinal Ganglion Cells (RGCs)", "test": "Neuronal survival of primary Retinal Ganglion Cells with labeled rhBDNF (TrkB binding intact)", "assay_type": "cell-based, rat", "description": "Labeled BDNF test articles, either 800-rhBDNF or FA-rhBDNF, were also assessed to as to whether the compositions would sustain neuronal survival by plating conjugates in Retinal Ganglion Cells (RGCs). RGCs were isolated from P6 rats by sequential immune-panning. Retinas are isolated and enzymatically digested by papain followed by mechanical dissociation into a single-cell suspension. Cells are negatively panned to remove macrophages and other nonspecifically adhering cells and then positively panned for RGCs using the Thy1.1 T11D7 hybridoma supernatant.\nas §1\nHigh Performance Liquid Chromatography and mass spectrometry was used to quantify the number of dye molecules attached or crosslinked to rhBDNF (i.e., the ratio of fluorescent dye in the 800 region to rhBDNF)."}, "[6]": {"settings": "average ratio of about 3.1 per monomer"}}, "data": [{"molecule": "800-rhNGF: Dyomics DY-800 Near InfraRed (NIR) dye attached directly to recombinant human NGF (rhNGF)", "values": [{"measurement": "Retrograde transport to cell bodies (800 NIR labelled cell bodies visualized)", "setting": "[1]", "value": "retrogradedly transported"}]}, {"molecule": "rhNGF: recombinant human NGF (nerve growth factor)", "values": [{"measurement": "Maximum Tolerated Dose (MTD)", "setting": "[2]", "value": 1, "unit": "µg/kg"}, {"measurement": "Stability in plasma (time stable)", "setting": "[3]", "value": "up to 4 days"}]}, {"molecule": "B1", "values": [{"measurement": "Survival of neurons", "setting": "[4]", "value": "sustained the survival of neurons"}, {"measurement": "Accumulation of fluorescence in the cell bodies with 100× excess unlabelled NGF", "setting": "TrkA receptors; 10 ng/mL fNGF + 1000 ng/mL unlabelled NGF in distal axon compartments, 24 hours", "value": "effectively inhibited"}, {"measurement": "Uptake of fluorescent NGF at distal ends of neurons (TrkA-mediated endocytosis)", "setting": "TrkA receptors", "value": "endocytosed at the distal ends"}, {"measurement": "Uptake of fluorescent NGF at distal ends of neurons (TrkA-mediated endocytosis)", "setting": "TrkA receptors; listed as fNGF", "value": "specific, TrkA receptor-mediated process"}]}, {"molecule": "B2", "values": [{"measurement": "Neuronal survival in primary neurons of Retinal Ganglion Cells", "setting": "[5]; FIG. 3", "value": "sustained neuronal survival"}, {"measurement": "Intraneuronal uptake", "setting": "[5]; [6]", "value": "intraneuronal uptake"}, {"measurement": "Trk binding", "setting": "[5]; [6]", "value": "Trk binding"}]}]}
